The target of the test is BamA^Eco (Escherichia coli) (UniProt P0A940). Kind of test: flow cytometry on cells. Particulars: remark: other sources report otherwise. Background: A flow cytometer gives signals particle by particle.

On to CdiA^EC93, Q3YL96 33-3132, for which the percent of target cells bound to inhibitor cells turned out to be 73%.

The record behind these values is article PMC4191985.
